The assay addresses HLA-A*02:01 (Homo sapiens, UniProt P04439, D140Y/D185E/D98H/E176V/E277Q/G131W/G231S/I119V/I121R/I166T/I218V/L300P/L318F/N151K/N90K/P208A/P217A/Q86G/Q94H/R138H/R169H/T345S). Kind of assay: MHC binding assay: UV-ligand exchange with beta2m ELISA (exchange yield). As to conditions: binding to HLA-A*02:01, β2m ELISA. The gist of the method:
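Peptide–HLA-A*02:01 complexes formed by UV-induced exchange of a photocleavable ligand for the test peptide. Exchange products diluted 100-fold and captured on streptavidin-coated plates. Stabilized complexes detected with HRP anti-β2m (1 h, 37° C.) and TMB, A450; exchange yield reported.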

As for “607 (RLYSGISGLEL; listed as Homo sapiens) [compound 607]”, the “Peptide exchange (MHC class I binding score, peptide exchange yield)” value (“Peptide exchange” below) was ““+++” (≥50 = +++)”.

On to “70 (GLLDYPVGV; listed as Homo sapiens) [compound 70]”, for which the “Peptide exchange” value is ““+++” (≥50 = +++)”.

As for “286 (YLFPGIPEL; listed as Homo sapiens) [compound 286]”, the “Peptide exchange” value is given as ““+++” (≥50 = +++)”.

As to “228 (AMQEYIAVV; listed as Homo sapiens) [compound 228]”, the “Peptide exchange” value was ““++” (≥20% = ++)”.

Turning to “381 (FIDEAYVEV; listed as Homo sapiens) [compound 381]”, the “Peptide exchange” value is ““++” (≥20% = ++)”.

Take “194 (ALPLFVITV; listed as Homo sapiens) [compound 194]”: the “Peptide exchange” value is ““+++” (≥50 = +++)”.

For the substance “599 (YLLNDASLISV; listed as Homo sapiens) [compound 599]”, the “Peptide exchange” value is given as ““+++” (≥50 = +++)”.

In the case of “349 (SLTEYLQNV; listed as Homo sapiens) [compound 349]”, the “Peptide exchange” value is recorded as ““++++” (≥75% = ++++)”.

Turning to “317 (SLAALVVHV; listed as Homo sapiens) [compound 317]”, the “Peptide exchange” value is ““+++” (≥50 = +++)”.

Take “382 (ALQNYIKEA; listed as Homo sapiens) [compound 382]”: the “Peptide exchange” value was ““++” (≥20% = ++)”.

Regarding “299 (YLLETSGNL; listed as Homo sapiens) [compound 299]”, the “Peptide exchange” value was ““+++” (≥50 = +++)”.

Take “376 (AMFESSQNVLL; listed as Homo sapiens) [compound 376]”: the “Peptide exchange” value was ““++” (≥20% = ++)”.

In the case of “197 (ALGPEGGRV; listed as Homo sapiens) [compound 197]”, the “Peptide exchange” value is ““++” (≥20% = ++)”.

Consider “352 (SLLELLHIYV; listed as Homo sapiens) [compound 352]”, for which the “Peptide exchange” value is listed as ““+++” (≥50 = +++)”.

For “432 (TLIEESAKV; listed as Homo sapiens) [compound 432]”, the “Peptide exchange” value is listed as ““++” (≥20% = ++)”.

For the substance “560 (ALWDIETGQQTTT; listed as Homo sapiens) [compound 560]”, the “Peptide exchange” value is given as ““+++” (≥50 = +++)”.

Consider “389 (LLADVTHLL; listed as Homo sapiens) [compound 389]”, for which the “Peptide exchange” value is recorded as ““++” (≥20% = ++)”.

For the substance “269 (RVLEVGALQAV; listed as Homo sapiens) [compound 269]”, the “Peptide exchange” value was ““++” (≥20% = ++)”.

With “123 (NLWDLTDASVV; listed as Homo sapiens) [compound 123]”, the “Peptide exchange” value is on record as ““+++” (≥50 = +++)”.

As to “20 (RMIEYFIDV; listed as Homo sapiens) [compound 20]”, the “Peptide exchange” value is listed as ““+++” (≥50 = +++)”.

As for “235 (YLNDLHEVLL; listed as Homo sapiens) [compound 235]”, the “Peptide exchange” value is on record as ““++++” (≥75% = ++++)”.

On to “520 (LAVHPSGVAL; listed as Homo sapiens) [compound 520]”, for which the “Peptide exchange” value was ““+” (≥10% = +)”.

With “450 (FMIDASVHPTL; listed as Homo sapiens) [compound 450]”, the “Peptide exchange” value is reported as ““+++” (≥50 = +++)”.

Consider “88 (FLLVGDLMAV; listed as Homo sapiens) [compound 88]”, for which the “Peptide exchange” value is on record as ““+++” (≥50 = +++)”.

For “529 (LLADELITV; listed as Homo sapiens) [compound 529]”, the “Peptide exchange” value was ““+++” (≥50 = +++)”.

“252 (LLIGTDVSL; listed as Homo sapiens) [compound 252]”: the “Peptide exchange” value is ““+++” (≥50 = +++)”.

“541 (SMLEPVPEL; listed as Homo sapiens) [compound 541]”: the “Peptide exchange” value is reported as ““+++” (≥50 = +++)”.

On to “307 (ALPVSLPQI; listed as Homo sapiens) [compound 307]”, for which the “Peptide exchange” value was ““+++” (≥50 = +++)”.

For the substance “508 (ILAQEQLVVGV; listed as Homo sapiens) [compound 508]”, the “Peptide exchange” value is ““+++” (≥50 = +++)”.

For “598 (FLFPHSVLV; listed as Homo sapiens) [compound 598]”, the “Peptide exchange” value is on record as ““+++” (≥50 = +++)”.

As to “297 (VLADIELAQA; listed as Homo sapiens) [compound 297]”, the “Peptide exchange” value is reported as ““+++” (≥50 = +++)”.

In the case of “49 (YLPAVFEEV; listed as Homo sapiens) [compound 49]”, the “Peptide exchange” value was ““+++” (≥50 = +++)”.

In the case of “39 (SVAPNLPAV; listed as Homo sapiens) [compound 39]”, the “Peptide exchange” value is ““+++” (≥50 = +++)”.

Consider “13 (YLMDESLNL; listed as Homo sapiens) [compound 13]”, for which the “Peptide exchange” value is listed as ““+++” (≥50 = +++)”.

On to “87 (ALPEAPAPLLPHIT; listed as Homo sapiens) [compound 87]”, for which the “Peptide exchange” value was ““++” (≥20% = ++)”.

Turning to “635 (SLDSTLHAV; listed as Homo sapiens) [compound 635]”, the “Peptide exchange” value is ““+++” (≥50 = +++)”.

In the case of “210 (LLLNAVLTV; listed as Homo sapiens) [compound 210]”, the “Peptide exchange” value is ““++” (≥20% = ++)”.

With “273 (NLFQSVREV; listed as Homo sapiens) [compound 273]”, the “Peptide exchange” value is on record as ““++” (≥20% = ++)”.

In the case of “354 (LILEGVDTV; listed as Homo sapiens) [compound 354]”, the “Peptide exchange” value is recorded as ““++” (≥20% = ++)”.

With “566 (VIADGGIQNV; listed as Homo sapiens) [compound 566]”, the “Peptide exchange” value is given as ““++” (≥20% = ++)”.

Take “231 (FLSPQQPPLLL; listed as Homo sapiens) [compound 231]”: the “Peptide exchange” value is listed as ““++” (≥20% = ++)”.

Take “611 (YLLDDGTLVV; listed as Homo sapiens) [compound 611]”: the “Peptide exchange” value is reported as ““++++” (≥75% = ++++)”.

As to “164 (ALLPQPKNLTV; listed as Homo sapiens) [compound 164]”, the “Peptide exchange” value is on record as ““+++” (≥50 = +++)”.

Take “605 (KLYEAVPQL; listed as Homo sapiens) [compound 605]”: the “Peptide exchange” value was ““+++” (≥50 = +++)”.

As for “249 (LLDGFLVNV; listed as Homo sapiens) [compound 249]”, the “Peptide exchange” value is on record as ““+++” (≥50 = +++)”.

For “100 (YLLSTNAQL; listed as Homo sapiens) [compound 100]”, the “Peptide exchange” value is listed as ““++++” (≥75% = ++++)”.

Consider “342 (HIYDKVMTV; listed as Homo sapiens) [compound 342]”, for which the “Peptide exchange” value was ““+++” (≥50 = +++)”.

Turning to “498 (KLWTGGLDNTV; listed as Homo sapiens) [compound 498]”, the “Peptide exchange” value was ““+++” (≥50 = +++)”.

Take “271 (LVYPLELYPA; listed as Homo sapiens) [compound 271]”: the “Peptide exchange” value is reported as ““+++” (≥50 = +++)”.

As to “140 (YMDAPKAAL; listed as Homo sapiens) [compound 140]”, the “Peptide exchange” value is given as ““++” (≥20% = ++)”.

“586 (KLKPGDLVGV; listed as Homo sapiens) [compound 586]”: the “Peptide exchange” value is given as ““+++” (≥50 = +++)”.

In the case of “96 (YIFTDNPAAV; listed as Homo sapiens) [compound 96]”, the “Peptide exchange” value was ““+++” (≥50 = +++)”.

As for “379 (IMEGTLTRV; listed as Homo sapiens) [compound 379]”, the “Peptide exchange” value is reported as ““++” (≥20% = ++)”.

For the substance “510 (KLYSVVSQL; listed as Homo sapiens) [compound 510]”, the “Peptide exchange” value is on record as ““++” (≥20% = ++)”.

Turning to “110 (FLSQVDFEL; listed as Homo sapiens) [compound 110]”, the “Peptide exchange” value is ““+++” (≥50 = +++)”.

For the substance “509 (FLFDTKPLIV; listed as Homo sapiens) [compound 509]”, the “Peptide exchange” value was ““+++” (≥50 = +++)”.

Consider “347 (SLFKHDPAAWEA; listed as Homo sapiens) [compound 347]”, for which the “Peptide exchange” value was ““++++” (≥75% = ++++)”.

For “229 (RLPGPLGTV; listed as Homo sapiens) [compound 229]”, the “Peptide exchange” value was ““++” (≥20% = ++)”.

Turning to “427 (ALLPLSPYL; listed as Homo sapiens) [compound 427]”, the “Peptide exchange” value is reported as ““+++” (≥50 = +++)”.

Take “332 (YLISELEAA; listed as Homo sapiens) [compound 332]”: the “Peptide exchange” value is listed as ““+++” (≥50 = +++)”.

Take “590 (SLIEKLWQT; listed as Homo sapiens) [compound 590]”: the “Peptide exchange” value was ““++” (≥20% = ++)”.

The values are drawn from patent US10280205B2, “Method for treating cancer with an activated T lymphocyte that selectively recognizes a cancer cell consisting of specific peptide” (immatics biotechnologies GmbH, priority 2015, dated 2019).
